Here are results for 3 variants from IntAct's records for PubMed 16642037.

B1: RAC-alpha serine/threonine-protein kinase (Rattus norvegicus (Rat)), P47196 (parent)
chain: MNDVAIVKEGWLHKRGEYIKTWRPRYFLLKNDGTFIGYKERPQDVEQRESPLNNFSVAQCQLMKTERPRPNTFIIRCLQWTTVIERTFHVETPEEREEWTTAIQTVADGLKRQEEETMDFRSGSPSDNSGAEEMEVALAKPKHRVTMNEFEYLKLLGKGTFGKVILVKEKATGRYYAMKILKKEVIVAKDEVAHTLTENRVLQNSRHPFLTALKYSFQTHDRLCFVMEYANGGELFFHLSRERVFSEDRARFYGAEIVSALDYLHSEKNVVYRDLKLENLMLDKDGHIKITDFGLCKEGIKDGATMKTFCGTPEYLAPEVLEDNDYGRAVDWWGLGVVMYEMMCGRLPFYNQDHEKLFELILMEEIRFPRTLGPEAKSLLSGLLKKDPTQRLGGGSEDAKEIMQHRFFANIVWQDVYEKKLSPPFKPQVTSETDTRYFDEEFTAQMITITPPDQDDSMECVDSERRPHFPQFSYSASGTA

The experiment covers variants of B1. The conditions noted are these: with nfkb1_rat Nfkb1, Q63369.
Chain of nfkb1_rat Nfkb1, Q63369 (Q63369 whole entry): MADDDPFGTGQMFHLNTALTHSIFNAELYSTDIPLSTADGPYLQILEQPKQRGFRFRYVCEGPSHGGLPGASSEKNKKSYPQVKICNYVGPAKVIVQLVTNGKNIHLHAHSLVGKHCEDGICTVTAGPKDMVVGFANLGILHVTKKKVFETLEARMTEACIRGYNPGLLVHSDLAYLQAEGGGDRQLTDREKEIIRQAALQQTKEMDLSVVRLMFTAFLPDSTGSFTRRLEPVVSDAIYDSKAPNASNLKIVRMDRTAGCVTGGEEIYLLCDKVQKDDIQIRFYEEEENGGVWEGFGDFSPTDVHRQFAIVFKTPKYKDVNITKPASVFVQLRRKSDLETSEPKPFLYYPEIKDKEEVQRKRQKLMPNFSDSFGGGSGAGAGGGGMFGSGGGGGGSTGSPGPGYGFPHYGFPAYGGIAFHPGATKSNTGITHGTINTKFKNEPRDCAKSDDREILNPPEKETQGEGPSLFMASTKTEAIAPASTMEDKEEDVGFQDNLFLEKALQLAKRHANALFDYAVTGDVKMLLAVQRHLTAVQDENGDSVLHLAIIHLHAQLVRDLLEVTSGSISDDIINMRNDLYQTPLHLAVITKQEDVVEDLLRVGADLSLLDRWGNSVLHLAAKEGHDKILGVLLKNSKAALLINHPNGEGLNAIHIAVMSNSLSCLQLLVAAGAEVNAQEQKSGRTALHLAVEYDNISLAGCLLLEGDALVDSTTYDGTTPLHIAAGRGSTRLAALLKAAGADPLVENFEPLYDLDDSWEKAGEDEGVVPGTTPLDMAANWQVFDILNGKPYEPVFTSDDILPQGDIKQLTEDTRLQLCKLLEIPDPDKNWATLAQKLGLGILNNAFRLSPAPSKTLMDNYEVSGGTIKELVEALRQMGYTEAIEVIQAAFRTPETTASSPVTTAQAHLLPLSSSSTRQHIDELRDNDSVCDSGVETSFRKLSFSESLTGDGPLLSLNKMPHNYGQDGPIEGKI
MNDVAIVKEGWLHKRGEYIKTWRPRYFLLKNDGTFIGYKERPQDVEQRESPLNNFSVAQCQLMKTERPRPNTFIIRCLQWTTVIERTFHVETPEEREEWTTAIQTVADGLKRQEEETMDFRSGSPSDNSGAEEMEVALAKPKHRVTMNEFEYLKLLGKGTFGKVILVKEKATGRYYAMKILKKEVIVAKDEVAHTLTENRVLQNSRHPFLTALKYSFQTHDRLCFVMEYANGGELFFHLSRERVFSEDRARFYGAEIVSALDYLHSEKNVVYRDLKLENLMLDKDGHIKITDFGLCKEGIKDGATMKTFCGTPEYLAPEVLEDNDYGRAVDWWGLGVVMYEMMCGRLPFYNQDHEKLFELILMEEIRFPRTLGPEAKSLLSGLLKKDPTQRLGGGSEDAKEIMQHRFFANIVWQDVYEKKLSPPFKPQVTSETDTRYFDEEFTAQMITITPPDQDDSMECVDSERRPHFPQFDYSASGTA [S473D]: the “effect of a mutation on the interaction” value is “increasing interaction”. Regarding MNDVAIVKEGWLHKRGEYIKTWRPRYFLLKNDGTFIGYKERPQDVEQRESPLNNFSVAQCQLMKTERPRPNTFIIRCLQWTTVIERTFHVETPEEREEWTTAIQTVADGLKRQEEETMDFRSGSPSDNSGAEEMEVALAKPKHRVTMNEFEYLKLLGKGTFGKVILVKEKATGRYYAMAILKKEVIVAKDEVAHTLTENRVLQNSRHPFLTALKYSFQTHDRLCFVMEYANGGELFFHLSRERVFSEDRARFYGAEIVSALDYLHSEKNVVYRDLKLENLMLDKDGHIKITDFGLCKEGIKDGATMKTFCGTPEYLAPEVLEDNDYGRAVDWWGLGVVMYEMMCGRLPFYNQDHEKLFELILMEEIRFPRTLGPEAKSLLSGLLKKDPTQRLGGGSEDAKEIMQHRFFANIVWQDVYEKKLSPPFKPQVTSETDTRYFDEEFTAQMITITPPDQDDSMECVDSERRPHFPQFSYSASGTA [K179A], the “effect of a mutation on the interaction” value was “increasing interaction”. For the variant MNDVAIVKEGWLHKRGEYIKTWRPRYFLLKNDGTFIGYKERPQDVEQRESPLNNFSVAQCQLMKTERPRPNTFIIRCLQWTTVIERTFHVETPEEREEWTTAIQTVADGLKRQEEETMDFRSGSPSDNSGAEEMEVALAKPKHRVTMNEFEYLKLLGKGTFGKVILVKEKATGRYYAMKILKKEVIVAKDEVAHTLTENRVLQNSRHPFLTALKYSFQTHDRLCFVMEYANGGELFFHLSRERVFSEDRARFYGAEIVSALDYLHSEKNVVYRDLKLENLMLDKDGHIKITDFGLCKEGIKDGATMKDFCGTPEYLAPEVLEDNDYGRAVDWWGLGVVMYEMMCGRLPFYNQDHEKLFELILMEEIRFPRTLGPEAKSLLSGLLKKDPTQRLGGGSEDAKEIMQHRFFANIVWQDVYEKKLSPPFKPQVTSETDTRYFDEEFTAQMITITPPDQDDSMECVDSERRPHFPQFSYSASGTA [T308D], the “effect of a mutation on the interaction” value was “increasing interaction”.
